Reference: patent publication US20070060521A1

Target: IL-6 receptor on U266 human myeloma cells (human) (UniProt P08887)
Assay: cell-based or functional assay

IL-6 receptor on U266 human myeloma cells (human), sequence (P08887 20-468): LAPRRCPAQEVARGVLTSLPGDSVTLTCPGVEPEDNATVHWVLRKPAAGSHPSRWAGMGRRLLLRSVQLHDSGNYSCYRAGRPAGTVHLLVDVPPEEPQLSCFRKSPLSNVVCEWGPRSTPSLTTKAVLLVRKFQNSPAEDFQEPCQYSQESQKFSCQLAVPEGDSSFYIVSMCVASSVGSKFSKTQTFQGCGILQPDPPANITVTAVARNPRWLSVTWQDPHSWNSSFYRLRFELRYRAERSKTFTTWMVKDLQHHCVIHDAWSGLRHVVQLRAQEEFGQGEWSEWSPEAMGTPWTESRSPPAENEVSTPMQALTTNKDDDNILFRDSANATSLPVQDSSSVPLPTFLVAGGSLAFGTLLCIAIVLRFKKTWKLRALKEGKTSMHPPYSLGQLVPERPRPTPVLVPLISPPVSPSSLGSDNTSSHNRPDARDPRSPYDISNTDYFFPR

- reduction of constitutive STAT3 DNA-binding (EMSA) in U266 cells: 70%
Substance: Sant7, IL-6 superantagonist (ligand)
